Test results as given in PMC8961561, “PEPscan: A Broad Spectrum Approach for the Characterization of Protein-Binder Interactions?” (Biomolecules, 2022).

T1: SLAM-Associated Protein (SAP) (UniProt O60880 1-128)
T1 construct: SAP, UniProt O60880, full size 128
T1 sequence (looked up): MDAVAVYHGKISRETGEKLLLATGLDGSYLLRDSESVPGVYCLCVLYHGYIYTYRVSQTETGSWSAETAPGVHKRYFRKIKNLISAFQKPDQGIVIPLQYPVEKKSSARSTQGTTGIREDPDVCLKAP


Tests used:
TIMP-1 = target: T2, TIMP-1 (UniProt P01033 24-207); experiment: peptide or protein array; PEPscan: overlapping dodecapeptides (two amino acid shift) spanning the complete sequence of one partner on a cellulose membrane; saturated with 3% non-fat dry milk/3% BSA; incubated with the purified protein partner (4 mg/mL, 4 °C, overnight); antibody against that protein, HRP-conjugated secondary antibody, ECL; conditions: both partners purified
T2 construct: TIMP-1, UniProt P01033, full size 207
T2 sequence (P01033 24-207): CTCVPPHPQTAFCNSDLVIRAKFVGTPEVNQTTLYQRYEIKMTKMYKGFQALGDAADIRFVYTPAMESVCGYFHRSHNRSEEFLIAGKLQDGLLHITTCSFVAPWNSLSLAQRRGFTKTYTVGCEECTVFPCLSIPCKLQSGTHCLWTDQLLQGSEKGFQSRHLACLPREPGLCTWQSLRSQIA

[1] = target: T1, SLAM-Associated Protein (SAP); experiment: as above; conditions: both partners purified

| binding result (TIMP-1) | binding result [1] | Binder |
| --- | --- | --- |
| binds | – | FREYNLHRVAAHELGHSL (stretch of MMP-1; union of positive overlapping dodecapeptide spots 4:11–14; also called MMP1 4:11–14; source: spot synthesis on cellulose membrane) [MMP1 fragment FREYNLHRVAAHELGHSL] |
| – | binds | ALYDYEARTEDDLSFH (stretch of Fyn; union of positive overlapping dodecapeptide spots 2:14–16; also called FSYN-SH3 2:14–16; source: spot synthesis on cellulose membrane) [Fyn fragment ALYDYEARTEDDLSFH] |
